Measured values as given in article PMC4219823, “A Nuclear Factor of High Mobility Group Box Protein in Toxoplasma gondii”.

Target: T1, TgGRA1 (Toxoplasma gondii, UniProt P13403 25-190)
T1 sequence: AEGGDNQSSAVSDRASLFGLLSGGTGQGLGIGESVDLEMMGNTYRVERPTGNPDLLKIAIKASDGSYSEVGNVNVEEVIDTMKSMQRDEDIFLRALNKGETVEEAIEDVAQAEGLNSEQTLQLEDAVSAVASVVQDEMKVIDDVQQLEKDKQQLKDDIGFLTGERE
Experiment: EMSA; 2 mg/mL protein
Conditions: protein: recombinant; tags: His; label: biotin (TdT labeling); four-way junction of 4 strands

B1: 4H cruciform DNA (4H-a/4H-b/4H-c/4H-d) (structured_DNA)
DNA 1: AACAGTAGCTTATTCGAGCTCGCGCCCTATCACGACGACTA
DNA 2: GTAGTCGTCGTGATAGGTGCAGGGGTTATAGGG
DNA 3: CCCTATAACCCCTGCATTGAATTCCAGTCTGATAA
DNA 4: TTTATCAGACTGGAATTCAAGCGCGAGCTCGAATAAGCTACTGT
  binding result: no binding
